Patent US20230203204A1 (published 2023)

Biological target: T1, recombinant human RANKL-murine Fc fusion protein (Sino Biological Inc.) (human, UniProt O14788 136-317, limits assumed)
T1 construct: Bought; not shown: murine Fc
T1 sequence (looked up): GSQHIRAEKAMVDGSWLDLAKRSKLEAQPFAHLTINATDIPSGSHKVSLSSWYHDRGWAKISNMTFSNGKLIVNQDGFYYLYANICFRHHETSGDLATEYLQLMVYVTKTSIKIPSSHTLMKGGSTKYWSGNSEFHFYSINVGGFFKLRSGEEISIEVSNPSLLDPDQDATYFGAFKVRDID
Experiment: ELISA, human RANKL-murine Fc coated at 1 ug/mL, fusion protein titrated, anti-human IgG Fc-AP detection

- EC50: 0.04 µg/mL
B1: OPG-Fc (Sino Biological Inc.) (Fc fusion, UniProt O00300 22-401, looked up)
chain: ETFPPKYLHYDEETSHQLLCDKCPPGTYLKQHCTAKWKTVCAPCPDHYYTDSWHTSDECLYCSPVCKELQYVKQECNRTHNRVCECKEGRYLEIEFCLKHRSCPPGFGVVQAGTPERNTVCKRCPDGFFSNETSSKAPCRKHTNCSVFGLLLTQKGNATHDNICSGNSESTQKCGIDVTLCEEAFFRFAVPTKFTPNWLSVLVDNLPGTKVNAESVERIKRQHSSQEQTFQLLKLWKHQNKDQDIVKKIIQDIDLCENSVQRHIGHANLTFEQLRSLMESLPGKKVGAEDIEKTIKACKPSDQILKLLSLWRIKNGDQDTLKGLMHALKHSKTYHFPKTVTQSLKKTIRFLHSFTMYKLYQKLFLEMIGNQVQSVKISCL
notes: not shown: Fc part of the bought product
